{"source": "patent US20140056893A1", "about": "(Eli Lilly, published 2014)", "binders": {"B1": {"name": "Homodimeric protein wherein the amino acid sequence of each polypeptide of said protein is SEQ ID NO: 1 (Fc fusion)", "chain": "HGEGTFTSDVSSYLEEQAAKEFIAWLVAGGGGGGGSGGGGSGGGGSESKYGPPCPPCPAPEAAGGPSVFLFPPKPKDTLMISRTPEVTCVVVDVSCEDPEVQFNWYVDGVEVHNAKTKPREEQFNSTYRVVSVLTVLHQDWLNGKEYKCKVSNKGLPSSIEKTISKAKGQPREPQVYTLPPSCEEMTKNQVSLTCLVKGFYPSDIAVEWESNGQPENNYKTTPPVLDSDGSFFLYSRLTVDKSRWQEGNVFSCSVMHEALHNHYTQKSLSLSLGGGGGSGGGGSGGGGSAHPIPDSSPLLQFGGQVRQRYLYTDDAQQTECHLEIREDGTVGCAADQSPESLLQLKALKPGVIQILGVKTSRFLCQRPDGALYGSLHFDPEACSFREDLKEDGYNVYQSEAHGLPLHLPGDKSPHRKPAPRGPARFLPLPGLPPALPEPPGILAPQPPDVGSSDPLRLVEPSCLRSPSFE"}}, "target": "human glucagon-like peptide 1 receptor (hGLP-1R) (human, UniProt P43220 24-463)", "test": "cell-based or functional assay", "data": [{"binder": "B1", "values": [{"measurement": "In vitro potency (EC50), hGLP-1R-stimulated cAMP functional assay (Alpha Screen) in hGLP-1R-HEK293 cells", "result": 0.067, "unit": "nM"}]}]}
